Measured values: patent US20250188153A1

B1: MPV481 (antibody, V domains shown)
VH: EVQLVQSGGGLVKPGGSLRLSCAASGLPFNNAWMNWVRQAPGKGLEWVGRIKSKIDGGTTEYAAPVKGRFTISRDDSENTLYLQMNSLRTEDTAVYYCTTEYYALLSGNYSDCWGQGTLVTVSS
VL: DIVMTQSPFSLSLSPGERATLSCRASQSIKRAYLGWYQQKPGQAPRLLIYGASNRATGIPDRFSGSGSGTDFTLTISRLEPEDFAVYYCQQYGDSPGGSFGQGTKLEIR
B2: MPV487 (antibody, V domains shown)
VH: EVQLLESGGGLVQPGRSLRLSCTASGFTFDDYAMHWVRQLPGKGLEWVSGISWNSDNIGYADSVKGRFTISRDNGKNSLYLQMNSLRAEDTAFYYCAKDVRIDYDLLIGHIDYWGPGTLVTVSS
VL: TQSPVTLSLSPGERATLSCRASQSFGGYCAWYQQKPGQSPRLLIYDASNRATGVPARFSGSGSGTDFTLTISSLEPEDSAVYFCQQRGNWPIFGQGTRLEI
B3: MPV491 (antibody, V domains shown)
VH: QVQLQESGPGLVKSSQTLSLTCTVSGGSISSVTSHWTWIRQHPGKGLEWIGYIFSSGTTYYSPSLRSRLTMSVDTSKNQFSLQLSSVTAADTAMYYCARGIYCGDSCYKGTDYWGRGTLVTVSS
VL: IRLMTQTPVTLPVTPGEPASISCRSSQSLLHSNGYNYLDWYLQKPGQSPQLLIYRGSTRASGVPDRFSGSGSGTEFTLKISRVEAEDVGVYYCMQGLQTPYTFGQGTKLESR
B4: MPV467 (antibody, V domains shown)
VH: EVQLVESGGGVVRPGTSLRVSCAAFDFNFRDYGMHWVRQAPGKGLEWVAGIWYDGSNKDYADSVKGRFTISRDNSQNTLYLQMNSLRVEDTAVYYCARDPRTHREGALSHFDSWGQGTLVTVSS
VL: PNELTQDPAVSVALGQTVRITCQGDSLRNYFAGWYQQKPGQAPLLVLYGENIRPSGIPDRFSGSSSGNTVSLTITGAQAEDEADYYCNSRDNSGNHWVFGGGTRLTVL
B5: MPV456 (antibody, V domains shown)
VH: QVQLQESGPGVVKPSGTLSLTCGVSGGSISSSYWWSWVRQPPGKGLEWIGEIYHSGSTNYNPSLKRRVTISVDKSKNQFSLKVTSVTAADTAVYYCARGPIQYYDILTEERVGYCDYWGQGTLVTVSS
VL: TLSASVGDRVTITCRASQSISSWLAWFQQKPGKAPKLLIYKTSSLESGVPSRFSGSGSGTEFTLTISSLQPDDFATYYCQEYNSYSRTFGQGTKVEIK
B6: MPV489 (antibody, V domains shown)
VH: EVQLLESGGGLVQPGGSLRLSCAASKFTFNNYEMNWLRQAPGKGLEWVSSISSSGDTIHNADSVKGRFIISRDNAKNSLHLQMNGLRAEDTAVYYCARAGSGWAYDAFDIWGLGTMVTVSS
VL: LSASVGDRVTITCRASQSISSFLNWYQQKPGKAPKLLMYAASSLPVGVPSRFSGSGSGPEYTLTISNLQPEDFATYYCQQGYSSPPTFGGGTRLEVK
B7: MPV414 (antibody, V domains shown)
VH: QVQLVQSGPEVKKPGSSVMVSCKTSGGNFNNFAISWVRQAPGQGLEWMGGIVPIFGTANYAQKSQDRVTITADPSSSTAYLQLSSLTSDDTAIYYCARDLGRSSNYYYYSVFESWGQGTLVTVSS
VL: DIVMTQSPATLSLSPGERATLSCRASQSVGDKLAWYQQKPGQAPRLLIYGASTRATDIPARFSGSGSGTEFTLTVSSLQPEDFAVYYCQQYENWPPITFGQGTRLEIK
B8: MPV86 (antibody, V domains shown)
VH: QVQLVQSGAEVKKPGSSVKVSCKASGDTFNDVALSWVRQAPGQGLEWLGGIIPFFGTANYAQRFQDRVTITADASTSTAYLELGGLRSEDTAVYYCARGWSCRNITCFMMGYYFYIMDVWGQGTLVTVSS
VL: LSLSPGERATLSCRASQSVGNFLAWYQQKPGQTPRLLIQDASNRATGIPARFSGTGSGTDFTLTISSLEPEDFAVYYCQQRSNWPPTFGPGTKVDIK
B9: MPV482 (antibody, V domains shown)
VH: EVQLVQSGGGVVQPGRSLRLSCAASGFTFSSFAMHWVRQAPGKGLEWVALISDDGNNKYHADSVKGRFTISRDSSKNTLYLQMNSLRGEDTAVYYCARDGSVVGAAAHCDHWGQGTLVTVSS
VL: SYELTQPPSVSVSPGQTARITCSGDALPNQCAYWYQQKPGLAPVLLIYKDKERPSGIPERFSGSISGTTVTLTISGVQAEDEADYYCQSSDSSSTVVFGGGTKLTVL
B10: MPV485 (antibody, V domains shown)
V domain 1: EVQLQEPGPGLVKPSETLSLTCTVSGGSISSTNSFWGWVRQPPGKGLEWIGSIYYSGTTYYNSSLKSRVTISVDTSKNQFSLRLSSVTAADTAVYYCARQGLTSSWYDGSGLDVWG
V domain 2: SYELTQPPSVSVSPGQTASITCSGDKLGNKYACWYQQRPGQSPVLVIYQDTKRPSGIPERFSGSNSGNTATLTISGTQAMDEADYYCQAWDSNTVVFGGGTKLTVL
B11: MPV488 (antibody, V domains shown)
VH: EVQLVQSGFEVKKPGASVKVSCKASGYNFNNYGISWVRQAPGQGLEWMGWISAYTGNTNEAQKFQGRVSMTTDTSTSTAYMEVRSLRSDDTAVYYCARDIGSSMFYSYFYGMDVWGQGTTVIVSS
VL: SLSVSLGERATINCKSSESVLYNSNNENYLDWYQQKPGQPPKLLIYWASTRASGVPDRFSGSASGTDFTLTISSLQAEDVAVYYCQQYYSTPRTFGQGTKVEIK

Columns and labels:
Experiment in all cases: ELISA on coated recombinant protein, OD 405 nm
[1] = target: hMPV A1 F (human metapneumovirus)
[2] = target: hMPV A1 F trimer (heated) (human metapneumovirus)
[3] = target: hMPV B2 F GCN4 (human metapneumovirus)
[4] = target: hMPV B2 F protein (his-tagged, not trypsin treated) (human metapneumovirus)
[5] = target: hMPV B2 F trimer (heated) (human metapneumovirus)
[6] = target: hMPV B2 F monomer (human metapneumovirus)
[7] = target: hMPV A1 F monomer (human metapneumovirus)
[8] = target: hMPV A2 F (human metapneumovirus)
[9] = target: hMPV B1 F (human metapneumovirus)

Binder	EC50 [1] [µg/mL]	EC50 [2] [µg/mL]	EC50 [3] [µg/mL]	EC50 [4] [µg/mL]	EC50 [5] [µg/mL]	EC50 [6] [µg/mL]	EC50 [7] [µg/mL]	EC50 [8] [µg/mL]	EC50 [9] [µg/mL]
B1	0.31	0.28	0.11	0.16	0.31	0.2	0.17	0.11	
B2	0.11		0.071	0.37	0.54	0.099	0.13	0.1	0.065
B3	1.5	1.1	0.5	2.1	1.7	0.48	1.3	2.2	2
B4	0.38	0.26	0.061	0.37	0.65	0.06	0.053	0.12	0.12
B5	1.4	1.8	0.69	0.61	1.8		3.5	0.42	0.49
B6	5	4.5	2.3	4.2	18	1.3	7	9.3	
B7	0.15		0.061	1.8		0.19	0.074	0.034	0.034
B8	0.3		0.12	5.7		0.21	0.18	0.083	0.073
B9	0.13	0.35	0.092	0.33		0.2	0.29	0.057	0.072
B10	0.11	0.32	0.16	0.18	0.36	0.18	0.24	0.086	0.078
B11			0.073			0.063			
